Source: patent US20190307899A1, “JUNCTOPHILIN-2 FRAGMENTS AND USES THEREFOR” (University of Lowa Research Foundation, published 2019)

Key:
[1] = biological target: T1, full-length JP2 Δ(198-205) with N-terminal FLAG and C-terminal HA tags
T1 chain: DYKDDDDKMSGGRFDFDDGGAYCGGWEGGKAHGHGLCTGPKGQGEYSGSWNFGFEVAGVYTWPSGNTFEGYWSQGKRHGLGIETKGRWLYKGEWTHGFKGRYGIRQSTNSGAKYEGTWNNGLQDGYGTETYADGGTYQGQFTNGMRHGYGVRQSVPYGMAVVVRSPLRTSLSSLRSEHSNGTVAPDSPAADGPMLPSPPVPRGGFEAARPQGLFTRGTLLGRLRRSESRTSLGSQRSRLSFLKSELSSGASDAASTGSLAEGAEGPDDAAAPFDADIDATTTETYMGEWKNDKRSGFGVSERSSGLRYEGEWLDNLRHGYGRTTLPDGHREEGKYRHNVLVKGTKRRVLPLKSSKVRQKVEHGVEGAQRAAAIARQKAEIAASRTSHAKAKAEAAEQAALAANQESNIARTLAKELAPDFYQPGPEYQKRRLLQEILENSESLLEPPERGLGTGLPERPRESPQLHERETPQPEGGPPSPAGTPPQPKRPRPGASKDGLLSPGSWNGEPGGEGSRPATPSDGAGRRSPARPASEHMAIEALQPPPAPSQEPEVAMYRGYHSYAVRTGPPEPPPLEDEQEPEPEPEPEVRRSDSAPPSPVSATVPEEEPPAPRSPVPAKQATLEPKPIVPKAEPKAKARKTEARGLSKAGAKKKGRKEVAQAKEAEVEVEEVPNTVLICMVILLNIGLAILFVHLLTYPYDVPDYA

[2] = biological target: T2, full-length JP2 Δ(563-568) with N-terminal FLAG and C-terminal HA tags
T2 chain: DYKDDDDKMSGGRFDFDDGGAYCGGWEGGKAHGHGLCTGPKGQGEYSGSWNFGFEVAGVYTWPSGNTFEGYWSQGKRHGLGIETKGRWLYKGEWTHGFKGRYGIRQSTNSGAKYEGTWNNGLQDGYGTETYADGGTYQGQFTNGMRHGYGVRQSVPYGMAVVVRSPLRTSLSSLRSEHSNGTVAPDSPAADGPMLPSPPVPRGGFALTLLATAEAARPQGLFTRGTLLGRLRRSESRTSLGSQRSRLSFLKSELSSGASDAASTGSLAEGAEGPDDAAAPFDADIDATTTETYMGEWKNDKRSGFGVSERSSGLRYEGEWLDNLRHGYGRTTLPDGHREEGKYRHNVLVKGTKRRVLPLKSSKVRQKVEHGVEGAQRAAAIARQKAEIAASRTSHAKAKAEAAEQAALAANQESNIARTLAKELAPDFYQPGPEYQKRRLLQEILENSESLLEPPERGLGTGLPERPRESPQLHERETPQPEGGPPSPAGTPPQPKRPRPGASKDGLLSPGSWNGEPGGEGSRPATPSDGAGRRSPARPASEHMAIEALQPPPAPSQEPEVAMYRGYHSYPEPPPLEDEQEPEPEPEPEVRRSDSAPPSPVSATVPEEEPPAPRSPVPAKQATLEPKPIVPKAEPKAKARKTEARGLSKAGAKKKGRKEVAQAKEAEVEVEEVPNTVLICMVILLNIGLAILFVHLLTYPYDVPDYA

[3] = biological target: T3, junctophilin-2 (JP2), human, in human heart lysates, Q9BR39
T3 chain: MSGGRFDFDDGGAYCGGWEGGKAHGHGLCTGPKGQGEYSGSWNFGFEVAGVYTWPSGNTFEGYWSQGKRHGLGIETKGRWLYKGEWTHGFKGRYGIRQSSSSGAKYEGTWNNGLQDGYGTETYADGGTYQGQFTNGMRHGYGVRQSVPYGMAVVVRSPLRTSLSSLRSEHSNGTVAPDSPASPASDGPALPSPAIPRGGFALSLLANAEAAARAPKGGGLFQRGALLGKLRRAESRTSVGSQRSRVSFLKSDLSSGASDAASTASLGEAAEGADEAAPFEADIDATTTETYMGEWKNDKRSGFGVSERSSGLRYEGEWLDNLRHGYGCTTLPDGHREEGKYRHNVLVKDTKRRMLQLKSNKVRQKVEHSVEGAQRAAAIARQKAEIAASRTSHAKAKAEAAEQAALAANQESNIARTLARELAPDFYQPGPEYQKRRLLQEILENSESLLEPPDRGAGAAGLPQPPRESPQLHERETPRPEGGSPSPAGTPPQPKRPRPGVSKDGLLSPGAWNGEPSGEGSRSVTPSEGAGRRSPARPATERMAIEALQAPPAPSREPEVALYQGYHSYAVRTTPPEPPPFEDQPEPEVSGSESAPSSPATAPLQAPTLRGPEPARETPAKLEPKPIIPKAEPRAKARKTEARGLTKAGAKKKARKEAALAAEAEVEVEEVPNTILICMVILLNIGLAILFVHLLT

[4] = biological target: T4, junctophilin-2 (JP2), murine, full length, untagged
T4 chain: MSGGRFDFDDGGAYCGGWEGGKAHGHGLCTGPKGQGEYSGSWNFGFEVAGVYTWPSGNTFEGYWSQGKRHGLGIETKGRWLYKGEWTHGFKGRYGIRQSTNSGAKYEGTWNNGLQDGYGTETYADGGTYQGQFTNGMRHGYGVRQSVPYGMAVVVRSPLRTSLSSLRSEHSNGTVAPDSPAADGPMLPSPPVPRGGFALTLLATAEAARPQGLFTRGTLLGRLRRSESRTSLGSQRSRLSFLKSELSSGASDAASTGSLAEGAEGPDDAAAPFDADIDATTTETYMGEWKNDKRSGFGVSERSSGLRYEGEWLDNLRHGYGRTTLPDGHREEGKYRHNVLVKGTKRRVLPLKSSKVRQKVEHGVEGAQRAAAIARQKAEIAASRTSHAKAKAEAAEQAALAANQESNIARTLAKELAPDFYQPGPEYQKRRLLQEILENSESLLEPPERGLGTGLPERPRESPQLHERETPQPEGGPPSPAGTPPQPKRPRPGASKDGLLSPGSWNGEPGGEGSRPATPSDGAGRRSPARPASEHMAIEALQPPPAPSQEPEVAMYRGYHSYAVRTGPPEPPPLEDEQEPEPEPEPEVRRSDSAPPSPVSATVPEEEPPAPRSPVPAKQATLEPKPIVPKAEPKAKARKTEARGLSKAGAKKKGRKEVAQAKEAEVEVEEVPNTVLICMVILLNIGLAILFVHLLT

[5] = biological target: T5, full-length JP2 Δ(153-158) with N-terminal FLAG and C-terminal HA tags
T5 chain: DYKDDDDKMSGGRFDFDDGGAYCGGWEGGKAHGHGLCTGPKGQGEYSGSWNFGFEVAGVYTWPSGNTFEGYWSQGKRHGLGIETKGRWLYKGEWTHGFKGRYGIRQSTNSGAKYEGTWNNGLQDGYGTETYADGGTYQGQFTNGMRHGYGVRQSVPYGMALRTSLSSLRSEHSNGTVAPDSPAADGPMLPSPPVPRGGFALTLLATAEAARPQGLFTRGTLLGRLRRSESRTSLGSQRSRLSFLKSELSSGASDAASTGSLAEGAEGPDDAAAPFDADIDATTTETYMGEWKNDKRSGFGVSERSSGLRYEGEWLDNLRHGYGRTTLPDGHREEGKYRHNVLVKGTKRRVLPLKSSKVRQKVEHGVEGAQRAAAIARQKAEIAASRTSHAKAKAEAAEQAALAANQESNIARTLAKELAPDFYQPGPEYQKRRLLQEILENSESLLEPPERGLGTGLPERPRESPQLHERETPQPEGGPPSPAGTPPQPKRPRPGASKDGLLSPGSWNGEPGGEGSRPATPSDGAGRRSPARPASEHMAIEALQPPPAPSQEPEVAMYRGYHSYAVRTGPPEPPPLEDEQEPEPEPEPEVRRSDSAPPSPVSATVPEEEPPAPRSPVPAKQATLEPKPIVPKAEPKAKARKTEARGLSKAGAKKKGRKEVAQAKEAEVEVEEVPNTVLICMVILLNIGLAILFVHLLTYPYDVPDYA

[6] = biological target: T6, JP2(1-565) truncation with N-terminal FLAG tag (plasmid construct of FIG. 4)
T6 chain: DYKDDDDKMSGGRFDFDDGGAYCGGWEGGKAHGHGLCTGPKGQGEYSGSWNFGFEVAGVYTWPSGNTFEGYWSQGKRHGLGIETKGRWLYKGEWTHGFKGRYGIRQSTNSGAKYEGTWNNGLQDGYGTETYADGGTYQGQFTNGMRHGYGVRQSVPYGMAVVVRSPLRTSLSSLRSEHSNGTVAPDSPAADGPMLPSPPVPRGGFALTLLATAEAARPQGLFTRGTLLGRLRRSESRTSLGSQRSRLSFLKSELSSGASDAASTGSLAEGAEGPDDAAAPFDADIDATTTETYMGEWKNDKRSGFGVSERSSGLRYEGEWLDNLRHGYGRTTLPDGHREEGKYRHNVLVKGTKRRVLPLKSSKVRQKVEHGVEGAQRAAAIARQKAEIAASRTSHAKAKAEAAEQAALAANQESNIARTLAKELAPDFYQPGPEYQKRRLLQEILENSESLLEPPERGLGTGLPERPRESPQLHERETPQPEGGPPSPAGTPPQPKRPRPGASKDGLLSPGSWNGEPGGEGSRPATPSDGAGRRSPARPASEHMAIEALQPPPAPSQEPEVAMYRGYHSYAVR

[7] = biological target: T7, type 2 ryanodine receptor (mouse, UniProt E9Q401 1-4966, limits assumed); experiment: co-immunoprecipitation with anti-HA, Western blot
T7 construct: Endogenous prey of the co-immunoprecipitation; also called RyR2
T7 sequence (E9Q401 whole entry): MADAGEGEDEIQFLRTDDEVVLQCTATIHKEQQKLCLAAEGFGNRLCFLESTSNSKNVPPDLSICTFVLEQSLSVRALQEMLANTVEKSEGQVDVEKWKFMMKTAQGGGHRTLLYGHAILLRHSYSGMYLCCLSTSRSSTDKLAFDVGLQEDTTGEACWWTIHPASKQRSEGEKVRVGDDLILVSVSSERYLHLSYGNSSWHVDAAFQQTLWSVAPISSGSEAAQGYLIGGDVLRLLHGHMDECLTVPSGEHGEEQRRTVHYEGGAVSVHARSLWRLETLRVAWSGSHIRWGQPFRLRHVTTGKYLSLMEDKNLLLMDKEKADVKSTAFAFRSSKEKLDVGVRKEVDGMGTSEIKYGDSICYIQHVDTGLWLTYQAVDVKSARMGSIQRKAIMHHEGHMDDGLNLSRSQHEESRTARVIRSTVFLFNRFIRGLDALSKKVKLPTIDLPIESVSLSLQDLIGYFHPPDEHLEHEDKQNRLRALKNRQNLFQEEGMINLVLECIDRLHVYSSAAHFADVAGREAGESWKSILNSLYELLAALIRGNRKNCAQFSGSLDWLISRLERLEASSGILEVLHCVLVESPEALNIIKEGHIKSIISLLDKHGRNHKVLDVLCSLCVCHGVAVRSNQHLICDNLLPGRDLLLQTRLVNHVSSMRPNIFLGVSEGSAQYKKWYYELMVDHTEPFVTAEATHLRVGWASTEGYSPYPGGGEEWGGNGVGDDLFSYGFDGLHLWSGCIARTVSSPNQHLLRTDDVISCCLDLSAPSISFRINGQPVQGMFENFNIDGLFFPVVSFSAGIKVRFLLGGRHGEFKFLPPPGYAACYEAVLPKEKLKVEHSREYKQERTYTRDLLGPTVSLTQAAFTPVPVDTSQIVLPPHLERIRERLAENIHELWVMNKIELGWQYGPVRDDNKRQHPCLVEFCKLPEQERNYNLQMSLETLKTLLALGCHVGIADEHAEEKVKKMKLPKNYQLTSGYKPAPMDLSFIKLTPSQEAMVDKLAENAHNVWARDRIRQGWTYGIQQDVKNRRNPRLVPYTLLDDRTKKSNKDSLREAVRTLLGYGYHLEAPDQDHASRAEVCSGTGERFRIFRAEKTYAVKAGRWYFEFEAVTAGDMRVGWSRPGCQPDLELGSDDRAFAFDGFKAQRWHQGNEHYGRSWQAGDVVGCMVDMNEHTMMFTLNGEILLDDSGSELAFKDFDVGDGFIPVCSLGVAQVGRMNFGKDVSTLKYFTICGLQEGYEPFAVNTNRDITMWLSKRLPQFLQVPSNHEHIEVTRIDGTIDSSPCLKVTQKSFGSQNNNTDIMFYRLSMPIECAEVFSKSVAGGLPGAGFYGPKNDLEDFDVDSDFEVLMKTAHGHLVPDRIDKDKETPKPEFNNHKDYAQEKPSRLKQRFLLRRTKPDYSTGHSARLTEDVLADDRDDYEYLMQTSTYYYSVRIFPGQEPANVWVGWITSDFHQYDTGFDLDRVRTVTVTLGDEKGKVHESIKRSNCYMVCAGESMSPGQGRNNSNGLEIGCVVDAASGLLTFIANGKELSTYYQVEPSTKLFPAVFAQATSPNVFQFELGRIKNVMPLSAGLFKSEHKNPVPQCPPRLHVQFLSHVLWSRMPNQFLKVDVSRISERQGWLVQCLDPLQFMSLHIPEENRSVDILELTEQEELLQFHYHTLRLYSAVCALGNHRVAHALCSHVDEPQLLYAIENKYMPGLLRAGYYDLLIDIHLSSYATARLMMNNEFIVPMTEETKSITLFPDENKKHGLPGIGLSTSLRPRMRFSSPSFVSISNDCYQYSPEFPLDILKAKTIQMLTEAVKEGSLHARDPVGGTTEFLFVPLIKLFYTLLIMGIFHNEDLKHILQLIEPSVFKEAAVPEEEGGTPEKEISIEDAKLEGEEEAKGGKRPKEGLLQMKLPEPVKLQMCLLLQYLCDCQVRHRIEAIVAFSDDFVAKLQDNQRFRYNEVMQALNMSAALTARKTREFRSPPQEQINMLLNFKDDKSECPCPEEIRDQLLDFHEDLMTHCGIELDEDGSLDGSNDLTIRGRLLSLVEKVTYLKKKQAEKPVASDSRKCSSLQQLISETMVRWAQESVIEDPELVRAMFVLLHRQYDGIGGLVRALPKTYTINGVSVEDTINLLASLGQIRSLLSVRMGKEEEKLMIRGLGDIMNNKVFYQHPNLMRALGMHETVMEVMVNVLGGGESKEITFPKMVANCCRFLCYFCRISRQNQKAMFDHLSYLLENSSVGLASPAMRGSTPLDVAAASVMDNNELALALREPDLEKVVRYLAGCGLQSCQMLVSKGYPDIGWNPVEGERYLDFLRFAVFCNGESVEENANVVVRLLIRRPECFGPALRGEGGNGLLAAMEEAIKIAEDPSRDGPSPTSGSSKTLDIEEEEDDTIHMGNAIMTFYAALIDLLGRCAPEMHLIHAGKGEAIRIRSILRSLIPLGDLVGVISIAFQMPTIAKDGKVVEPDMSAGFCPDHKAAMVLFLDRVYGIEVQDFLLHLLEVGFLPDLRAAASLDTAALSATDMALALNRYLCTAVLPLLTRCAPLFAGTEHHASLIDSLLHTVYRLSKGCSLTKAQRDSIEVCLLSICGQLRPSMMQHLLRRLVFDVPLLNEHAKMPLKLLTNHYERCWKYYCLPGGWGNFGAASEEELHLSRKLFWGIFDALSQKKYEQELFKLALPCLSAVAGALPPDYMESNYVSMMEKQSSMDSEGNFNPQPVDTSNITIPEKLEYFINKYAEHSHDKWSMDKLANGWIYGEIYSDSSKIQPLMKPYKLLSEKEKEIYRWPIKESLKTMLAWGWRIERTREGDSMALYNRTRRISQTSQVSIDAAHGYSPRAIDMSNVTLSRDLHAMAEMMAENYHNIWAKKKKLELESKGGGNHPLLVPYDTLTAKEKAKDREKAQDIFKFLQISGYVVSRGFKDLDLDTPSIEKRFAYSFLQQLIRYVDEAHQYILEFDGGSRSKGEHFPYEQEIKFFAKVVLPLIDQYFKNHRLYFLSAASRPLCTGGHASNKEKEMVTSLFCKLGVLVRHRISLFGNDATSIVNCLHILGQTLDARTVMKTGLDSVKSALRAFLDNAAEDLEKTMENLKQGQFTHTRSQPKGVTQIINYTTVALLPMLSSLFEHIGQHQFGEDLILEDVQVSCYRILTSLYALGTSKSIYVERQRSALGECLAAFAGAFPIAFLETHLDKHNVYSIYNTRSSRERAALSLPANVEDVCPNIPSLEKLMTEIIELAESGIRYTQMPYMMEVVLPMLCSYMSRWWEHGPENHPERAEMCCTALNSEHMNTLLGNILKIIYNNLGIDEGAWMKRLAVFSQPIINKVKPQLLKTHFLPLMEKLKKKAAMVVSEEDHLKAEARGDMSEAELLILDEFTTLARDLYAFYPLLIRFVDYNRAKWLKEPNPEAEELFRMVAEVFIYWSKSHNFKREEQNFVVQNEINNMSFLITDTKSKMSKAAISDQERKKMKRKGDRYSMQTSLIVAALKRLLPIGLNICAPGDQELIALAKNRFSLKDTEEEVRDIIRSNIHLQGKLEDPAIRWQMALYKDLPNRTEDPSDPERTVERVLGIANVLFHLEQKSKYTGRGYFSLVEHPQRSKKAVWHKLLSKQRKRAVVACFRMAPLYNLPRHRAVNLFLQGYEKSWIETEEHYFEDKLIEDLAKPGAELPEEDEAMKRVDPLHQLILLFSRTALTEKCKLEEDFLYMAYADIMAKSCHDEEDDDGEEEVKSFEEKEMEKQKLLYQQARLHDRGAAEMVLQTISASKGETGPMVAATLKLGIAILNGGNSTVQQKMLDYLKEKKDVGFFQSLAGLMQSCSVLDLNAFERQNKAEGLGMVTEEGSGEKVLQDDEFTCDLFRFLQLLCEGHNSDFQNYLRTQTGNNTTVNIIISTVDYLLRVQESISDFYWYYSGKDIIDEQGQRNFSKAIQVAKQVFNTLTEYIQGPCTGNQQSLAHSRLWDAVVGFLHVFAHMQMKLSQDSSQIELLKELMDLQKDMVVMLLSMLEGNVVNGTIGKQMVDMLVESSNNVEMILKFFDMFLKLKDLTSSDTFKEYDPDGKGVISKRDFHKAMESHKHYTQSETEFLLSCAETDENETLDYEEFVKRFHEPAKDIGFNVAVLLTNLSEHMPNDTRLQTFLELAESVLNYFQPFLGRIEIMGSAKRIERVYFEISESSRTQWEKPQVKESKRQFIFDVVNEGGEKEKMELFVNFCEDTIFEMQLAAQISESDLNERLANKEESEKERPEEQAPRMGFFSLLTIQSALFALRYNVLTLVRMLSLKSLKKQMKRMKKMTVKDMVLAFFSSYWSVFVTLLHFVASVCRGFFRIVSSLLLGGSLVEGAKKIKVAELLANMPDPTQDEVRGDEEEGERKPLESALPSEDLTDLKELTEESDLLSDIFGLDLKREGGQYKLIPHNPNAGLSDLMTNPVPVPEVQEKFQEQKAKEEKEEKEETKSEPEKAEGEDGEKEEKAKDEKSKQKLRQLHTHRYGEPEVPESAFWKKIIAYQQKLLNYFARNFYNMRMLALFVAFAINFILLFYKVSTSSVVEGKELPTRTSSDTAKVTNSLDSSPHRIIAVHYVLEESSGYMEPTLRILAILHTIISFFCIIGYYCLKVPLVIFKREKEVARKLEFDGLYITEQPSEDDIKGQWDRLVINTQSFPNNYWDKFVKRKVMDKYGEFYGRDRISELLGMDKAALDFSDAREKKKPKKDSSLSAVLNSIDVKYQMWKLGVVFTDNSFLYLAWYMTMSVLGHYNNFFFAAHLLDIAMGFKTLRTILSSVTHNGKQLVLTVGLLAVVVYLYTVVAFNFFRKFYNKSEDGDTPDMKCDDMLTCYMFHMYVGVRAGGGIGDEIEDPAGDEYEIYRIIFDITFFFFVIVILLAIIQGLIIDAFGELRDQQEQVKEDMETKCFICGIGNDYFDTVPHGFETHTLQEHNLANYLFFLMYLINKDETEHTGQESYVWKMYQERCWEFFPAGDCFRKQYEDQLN

[8] = biological target: T8, Cav1.2 (voltage-gated L-type Ca2+ channel) (mouse, UniProt Q01815 1-2139); experiment: co-immunoprecipitation with anti-HA, Western blot
T8 construct: Endogenous prey of the co-immunoprecipitation

[9] = biological target: GST-JP2NT (junctophilin-2 residues 1-565) (Mus musculus, UniProt Q9ET78 SEQ:1-565); experiment: EMSA; conditions: tags: GST

B1: purified human calpain I (protein)
chain: SEEIITPVYCTGVSAQVQKQRARELGLGRHENAIKYLGQDYEQLRVRCLQSGTLFRDEAFPPVPQSLGYKDLGPNSSKTYGIKWKRPTELLSNPQFIVDGATRTDICQGALGDCWLLAAIASLTLNDTLLHRVVPHGQSFQNGYAGIFHFQLWQFGEWVDVVVDDLLPIKDGKLVFVHSAEGNEFWSALLEKAYAKVNGSYEALSGGSTSEGFEDFTGGVTEWYELRKAPSDLYQIILKALERGSLLGCSIDISSVLDMEAITFKKLVKGHAYSVTGAKQVNYRGQVVSLIRMRNPWGEVEWTGAWSDSSSEWNNVDPYERDQLRVKMEDGEFWMSFRDFMREFTRLEICNLTPDALKSRTIRKWNTTLYEGTWRRGSTAGGCRNYPATFWVNPQFKIRLDETDDPDDYGDRESGCSFVLALMQKHRRRERRFGRDMETIGFAVYEVPPELVGQPAVHLKRDFFLANASRARSEQFINLREVSTRFRLPPGEYVVVPSTFEPNKEGDFVLRFFSEKSAGTVELDDQIQANLPDEQVLSEEEIDENFKALFRQLAGEDMEISVKELRTILNRIISKHKDLRTKGFSLESCRSMVNLMDRDGNGKLGLVEFNILWNRIRNYLSIFRKFDLDKSGSMSAYEMRMAIESAGFKLNKKLYELIITRYSEPDLAVDFDNFVCCLVRLETMFRFFKTLDTDLDGVVTFDLFKWLQLTMFA
in vitro calpain cleavage assay, Western blot [1]: resulted in complete loss of the JP2 cleavage product N-II but had no effect on the generation of N-I
in vitro calpain cleavage assay, Western blot [2]: led to complete loss of N-IV (FIG. 4D, d) and a severe reduction in C-I
in vitro calpain cleavage of human heart lysates, Western blot of JP2 [3]: time-dependent and Ca^2+/calpain-dependent JP2 down-regulation
in vitro calpain cleavage of WT mouse heart lysates, Western blot of full-length JP2 [4]: significant reduction in full-length JP2 upon addition of calpain I
in vitro calpain cleavage assay, Western blot [5]: completely abolished the generation of N-I in the in vitro calpain cleavage assay
in vitro calpain cleavage, Western blot with anti-FLAG [6]: this fragment can be further processed by calpain to generate N-I, N-II, and N-III fragments

B2: JP2(566-end)-HA (other)
chain: TGPPEPPPLEDEQEPEPEPEPEVRRSDSAPPSPVSATVPEEEPPAPRSPVPAKQATLEPKPIVPKAEPKAKARKTEARGLSKAGAKKKGRKEVAQAKEAEVEVEEVPNTVLICMVILLNIGLAILFVHLLTYPYDVPDYA
notes: also called JP(566-end); Ad-JP2(566-end)
binding result [7]: no binding
binding result [8]: no binding

B3: TATA box variant TATAAT (dsDNA)
DNA 1: GGGATCTGAGTCGCAGTATAATAGAAGCTTTTCGGGCGTT
DNA 2: AACGCCCGAAAAGCTTCTATTATACTGCGACTCAGATCCC
modifications: [22]
binding result [9]: binds
